Experimental data reported in the supplement of paper PMC10567573.

B1: TNXB (parent)
chain: LLQRELMVPGTRHSAVLRDLRSGT
B2: RHOBTB2 (parent)
chain: NQEITKAFHVRRTNRVKECLAKGT

Variants of: B1
Test: protein stability index of a GFP-peptide fusion (GPS, HEK-293T) (PSI 1-6); higher = more stable
Details: c terminus: a fixed tail appended
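Also: lentivirally expressed fusions sorted by FACS into six bins by GFP to DsRed ratio, PSI derived from sequencing read proportions per bin multiplied by bin number.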

Protein stability index, by site and new letter:
R18: L 1.94 | T 2.43 | W 1.8 | V 2.51 | E 3.33 | I 2.21 | A 2.68
L20: T 2.66 | Y 2.27 | K 3.02 | R 2.86 | S 3.38 | N 3.53 | M 2.25 | G 3.37
S22: D 2.96 | P 2.43 | W 1.71 | Q 3.04 | I 2.5 | K 2.77 | H 2.2 | F 1.58 | A 2.32 | E 2.41 | T 2.39
V16: S 2.27 | P 2.82 | Q 2.68 | R 2.52 | C 2.02 | F 1.71
L6: T 3.53 | C 2.59 | V 2.89 | R 2.59 | Q 2.69 | G 2.8 | E 2.7 | A 2.43 | I 2.19 | S 3.1 | D 3.37 | F 2.74
T24: N 2.37 | D 2.5 | I 1.72 | V 2.29 | S 2.2 | E 1.83 | L 2 | W 1.84 | C 1.77 | G 3.51 | P 2.54 | K 2.03 | R 2.88 | Q 2.49
V8: D 2.91 | K 2.46 | H 2.36 | R 2.12 | A 2.42 | Y 2.32 | Q 2.22 | N 2.59 | I 1.99 | E 2.62 | S 3.11 | C 2.12 | G 2.27
A15: K 2.82 | R 3.4 | G 2.34 | C 1.72 | L 2.14 | H 2.41 | V 1.95 | Y 1.62 | M 2.43 | S 2.27
L1: K 2.87 | C 2.38 | S 3.2 | T 3.02 | H 2.98 | A 2.85 | N 3.54 | I 2.47 | W 1.61 | D 2.71 | F 2.41 | R 3.04 | G 2.89 | Q 3.22
T11: Y 1.94 | A 2.2 | G 3.21 | L 2.32 | F 2.3 | R 2.13 | M 2.2 | S 2.5 | N 2.43 | K 2.32 | I 2.38 | C 1.56
D19: W 1.73 | G 2.31 | L 1.75 | A 2.27 | F 2.18 | V 1.71 | R 1.69 | S 2.31 | N 2.06 | H 2.26
R4: W 1.49 | M 2.37 | K 2.46 | N 2.86 | V 1.81 | D 3.44 | A 2.19 | G 2.43 | H 2.73 | P 2.77 | Q 2.46
H13: S 2.9 | D 3.23 | K 2.09 | N 2.58 | C 2.1 | A 2.53 | R 3.11 | G 2.31 | M 2.25 | Q 3
Q3: M 2.16 | C 1.93 | E 3.52 | D 3.4 | P 2.88 | A 2.27 | T 2.17 | W 2.15 | V 1.58 | R 2.49
M7: V 2.67 | W 2.05 | R 2.16 | L 2.39 | K 2.52 | C 2.54 | E 3.61 | F 2.02 | N 2.57 | H 2.35
R21: L 1.99 | Q 2.01 | F 1.95 | D 2.69 | T 2.18 | I 2.13 | S 2.06 | N 2.34 | A 2.73
L17: Y 2.45 | T 2.73 | H 2.28 | P 2.97 | W 2.38 | V 2.85 | R 3.46 | F 2.23 | C 2.54
P9: H 2.23 | C 2 | L 2.02 | F 1.79 | N 2.34 | D 2.69 | W 1.68 | Y 2.01 | I 1.58 | E 2.54 | A 2.35 | S 2.2
L2: I 2.79 | N 3.34 | Y 2.71 | T 3.29 | G 3.42 | E 3.95
R12: D 3.01 | C 1.94 | N 2.76 | Q 2.42 | L 2.07 | H 2.4 | G 3.09 | M 1.85 | P 2.91 | S 2.06 | K 2.28 | T 2.27
G10: A 2.39 | Q 2.41 | I 1.64 | L 1.35 | S 3.01 | H 2.19 | T 2.58
G23: N 2.58 | P 2.14 | V 2.13 | R 2.72 | H 2.31 | C 2.36 | D 3.38 | Q 3.73
E5: R 1.98 | T 1.77 | I 2.06 | Q 2.6 | S 2.29 | K 2.6 | F 1.18
S14: K 2.67 | E 2.54 | V 2.22 | Q 2.85 | N 2.88 | C 2.03 | T 2.45 | D 2.66 | Y 2.71

Variants of: B2
Test: as above
Details: c terminus: a fixed tail appended

Protein stability index, by site and new letter:
A7: W 3.34 | D 3.82
K22: T 3.74 | A 4.19 | V 2.3
C19: H 2.59 | T 3.65 | D 3.13 | F 2.77 | P 3.11
K6: I 1.51 | T 3.43 | D 4
N1: F 2.07 | S 3.94 | K 3.49
E3: G 3.15 | K 3.06 | D 2.63 | H 2.47 | I 2.57
V16: K 3.41 | S 2.95
E18: W 2.23 | M 2.75 | Y 2.67 | Q 2.87
T13: I 2.1 | C 2.78 | Y 1.78 | L 3.32 | H 3.36
K17: Q 2.55 | L 3.12 | W 2.3 | M 2.54 | I 1.75
T5: M 3.42 | K 4.06 | H 4.29 | I 4.04
T24: N 3.36 | I 2.16 | K 3.88 | A 3.55 | P 3.65 | R 2.7
A21: H 2.35 | M 2.23 | D 3.83 | I 2.27
R12: F 2.16 | M 3.29 | Y 2.67 | Q 3.93 | C 2.68 | T 3.69 | S 3.95
L20: V 4.62 | M 3.59 | T 3.45 | H 2.84
V10: Y 3.78 | I 3.25 | R 3.91
G23: D 2.73 | Y 2.26 | N 3.02 | C 2.67
Q2: N 3.42 | G 2.39 | K 3.78 | E 4.05
R15: T 3.87 | C 3.27 | M 3.78 | Y 2.86 | K 3.29 | I 3.12
N14: C 1.88 | L 3.09 | I 3.58
H9: A 2.45 | R 2.87 | M 2.08 | S 2.98
R11: G 4.05 | W 2.61 | H 3.94 | M 2.81
F8: T 4.5 | G 4.63 | N 4.39 | E 4.62 | R 4.67 | W 2.94 | A 4.6
